What was measured:
[1] = molecular target: T1, human CD3 (TCR/CD3 complex on the cell surface) (human, UniProt P07766 23-207; P04234 22-171; P09693 23-182); experiment: flow cytometry, Jurkat WT gMFI over Jurkat KO gMFI, 1 ug/mL
T1 construct: whole, on cells; Native CD3 on human Pan-T cells or Jurkat wild-type cells; also called CD3 on Pan-T cells; CD3 on Jurkat WT cells

[2] = molecular target: T1, human CD3 (TCR/CD3 complex on the cell …); experiment: flow cytometry, Pan-T cells, 1 ug/mL
[3] = molecular target: T1, human CD3 (TCR/CD3 complex on the cell …); experiment: flow cytometry, Pan-T cells, 10 ug/mL
[4] = molecular target: T1, human CD3 (TCR/CD3 complex on the cell …); experiment: flow cytometry, Jurkat WT cells, 10 ug/mL
[5] = molecular target: T1, human CD3 (TCR/CD3 complex on the cell …); experiment: flow cytometry, Jurkat WT gMFI over Jurkat KO gMFI, 10 ug/mL
[6] = molecular target: T1, human CD3 (TCR/CD3 complex on the cell …); experiment: flow cytometry, Jurkat WT cells, 1 ug/mL

T1 sequence (P07766 23-207, chain 1 of 3): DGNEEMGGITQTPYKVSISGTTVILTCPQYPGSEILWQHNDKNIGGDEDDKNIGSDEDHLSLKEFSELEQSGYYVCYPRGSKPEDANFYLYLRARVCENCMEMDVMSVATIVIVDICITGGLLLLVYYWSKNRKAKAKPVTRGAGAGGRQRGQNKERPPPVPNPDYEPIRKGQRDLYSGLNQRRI
T1 sequence (P04234 22-171, chain 2 of 3): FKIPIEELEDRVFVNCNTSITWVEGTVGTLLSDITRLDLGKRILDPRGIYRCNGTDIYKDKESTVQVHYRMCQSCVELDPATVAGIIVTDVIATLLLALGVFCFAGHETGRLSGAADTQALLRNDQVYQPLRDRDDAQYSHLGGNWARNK
T1 sequence (P09693 23-182, chain 3 of 3): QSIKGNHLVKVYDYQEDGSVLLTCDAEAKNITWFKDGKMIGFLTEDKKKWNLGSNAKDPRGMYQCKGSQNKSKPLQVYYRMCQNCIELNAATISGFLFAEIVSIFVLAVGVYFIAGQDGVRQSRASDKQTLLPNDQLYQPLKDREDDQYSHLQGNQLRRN

Binder	Jurkat WT/KO (Fold) [1]	% Positive [2]	gMFI [2]	% Positive [3]	gMFI [3]	gMFI [4]	Jurkat WT/KO (Fold) [5]	gMFI [6]
CD3 × CD33-BspAb123 (bispecific antibody) chain 1: QTVVTQEPSFSVSPGGTVTLTCGLNSGSVSTSYYPSWYQQTPGQTPRTLIYSTNTRSSGVPDRFSGSILGNKAALTITGAQADDESDYYCVLYMGSGIWVFGCGTKLTVLGGGGSGGGGSGGGGSGGGGSQVQLVQSGAEVKKPGASLKVSCKASGYTFTSYYMHWVRQAPGQCLEWMGIINPSNGNTISAQKFQGRVTMTRDTSTSTVYMEMSSLRSEDTAVYYCVRSWGYYVMDVWGQGTTVTVSSDKTHTCPPCPAPEFEGGPSVFLFPPKPKDTLMISRTPEVTCVVVDVSHEDPEVKFNWYVDGVEVHNAKTKPREEQYNSTYRVVSVLTVLHQDWLNGKEYKCKVSNKALPASIEKTISKAKGQPREPQVYTLPPCREEMTKNQVSLWCLVKGFYPSDIAVEWESNGQPENNYKTTPPVLDSDGSFFLYSKLTVDKSRWQQGNVFSCSVMHEALHNHYTQKSLSLSPGK chain 2: EVQLVQSGAEVKKPGSSVKVSCKASGYTITDSNIHWVRQAPGQSLEWIGYIYPYNGGTDYNQKFKNRATLTVDNPTNTAYMELSSLRSEDTAFYYCVNGNPWLAYWGQGTLVTVSSASTKGPSVFPLAPSSKSTSGGTAALGCLVKDYFPEPVTVSWNSGALTSGVHTFPAVLQSSGLYSLSSVVTVPSSSLGTQTYICNVNHKPSNTKVDKRVEPKSCDKTHTCPPCPAPEFEGGPSVFLFPPKPKDTLMISRTPEVTCVVVDVSHEDPEVKFNWYVDGVEVHNAKTKPREEQYNSTYRVVSVLTVLHQDWLNGKEYKCKVSNKALPASIEKTISKAKGQPREPQVCTLPPSREEMTKNQVSLSCAVKGFYPSDIAVEWESNGQPENNYKTTPPVLDSDGSFFLVSKLTVDKSRWQQGNVFSCSVMHEALHNRFTQKSLSLSPGK chain 3: DIQLTQSPSTLSASVGDRVTITCRASESLDNYGIRFLTWFQQKPGKAPKLLMYAASNQGSGVPSRFSGSGSGTEFTLTISSLQPDDFATYYCQQTKEVPWSFGQGTKVEVKRTVAAPSVFIFPPSDEQLKSGTASVVCLLNNFYPREAKVQWKVDNALQSGNSQESVTEQDSKDSTYSLSSTLTLSKADYEKHKVYACEVTHQGLSSPVTKSFNRGEC	0.9 fold	1.8%	1860 gMFI	1.4%	1920 gMFI	1710 gMFI	0.8 fold	1680 gMFI
CD3 × CD33-BspAb124 (bispecific antibody) chain 1: not shown chain 2: EVQLVQSGAEVKKPGSSVKVSCKASGYTITDSNIHWVRQAPGQSLEWIGYIYPYNGGTDYNQKFKNRATLTVDNPTNTAYMELSSLRSEDTAFYYCVNGNPWLAYWGQGTLVTVSSASTKGPSVFPLAPSSKSTSGGTAALGCLVKDYFPEPVTVSWNSGALTSGVHTFPAVLQSSGLYSLSSVVTVPSSSLGTQTYICNVNHKPSNTKVDKRVEPKSCDKTHTCPPCPAPEFEGGPSVFLFPPKPKDTLMISRTPEVTCVVVDVSHEDPEVKFNWYVDGVEVHNAKTKPREEQYNSTYRVVSVLTVLHQDWLNGKEYKCKVSNKALPASIEKTISKAKGQPREPQVCTLPPSREEMTKNQVSLSCAVKGFYPSDIAVEWESNGQPENNYKTTPPVLDSDGSFFLVSKLTVDKSRWQQGNVFSCSVMHEALHNRFTQKSLSLSPGK chain 3: DIQLTQSPSTLSASVGDRVTITCRASESLDNYGIRFLTWFQQKPGKAPKLLMYAASNQGSGVPSRFSGSGSGTEFTLTISSLQPDDFATYYCQQTKEVPWSFGQGTKVEVKRTVAAPSVFIFPPSDEQLKSGTASVVCLLNNFYPREAKVQWKVDNALQSGNSQESVTEQDSKDSTYSLSSTLTLSKADYEKHKVYACEVTHQGLSSPVTKSFNRGEC	0.9 fold	1.5%	1950 gMFI	1%	1970 gMFI	1790 gMFI	0.9 fold	1800 gMFI
CD3 × CD33-BspAb68 (bispecific antibody, KiH heterodimer) scFv-Fc: EVQLVESGGGLVKPGGSLRLSCSASGFTFSTYTMNWVRQAPGKCLEWVSSISKSSSYIYYTDSVKGRFTISRDNAKNSLYLQMNSLRAEDTAVYYCARERRTLAFDIWGQGTMVTVSSGGGGSGGGGSGGGGSGGGGSNFMLTQPHSVSESPGKTVTISCTRSSGSIASNYVQWYQQRPGSSPTTVIYEDNQRSSGVPDRFSGSIDSSSNSASLTISGLKTEDEADYYCQSYDRSNRVFGCGTKLTVLGGGGSDKTHTCPPCPAPEFEGGPSVFLFPPKPKDTLMISRTPEVTCVVVDVSHEDPEVKFNWYVDGVEVHNAKTKPREEQYNSTYRVVSVLTVLHQDWLNGKEYKCKVSNKALPASIEKTISKAKGQPREPQVYTLPPCREEMTKNQVSLWCLVKGFYPSDIAVEWESNGQPENNYKTTPPVLDSDGSFFLYSKLTVDKSRWQQGNVFSCSVMHEALHNHYTQKSLSLSPGK heavy: EVQLVQSGAEVKKPGSSVKVSCKASGYTITDSNIHWVRQAPGQSLEWIGYIYPYNGGTDYNQKFKNRATLTVDNPTNTAYMELSSLRSEDTAFYYCVNGNPWLAYWGQGTLVTVSSASTKGPSVFPLAPSSKSTSGGTAALGCLVKDYFPEPVTVSWNSGALTSGVHTFPAVLQSSGLYSLSSVVTVPSSSLGTQTYICNVNHKPSNTKVDKRVEPKSCDKTHTCPPCPAPEFEGGPSVFLFPPKPKDTLMISRTPEVTCVVVDVSHEDPEVKFNWYVDGVEVHNAKTKPREEQYNSTYRVVSVLTVLHQDWLNGKEYKCKVSNKALPASIEKTISKAKGQPREPQVCTLPPSREEMTKNQVSLSCAVKGFYPSDIAVEWESNGQPENNYKTTPPVLDSDGSFFLVSKLTVDKSRWQQGNVFSCSVMHEALHNRFTQKSLSLSPGK light: DIQLTQSPSTLSASVGDRVTITCRASESLDNYGIRFLTWFQQKPGKAPKLLMYAASNQGSGVPSRFSGSGSGTEFTLTISSLQPDDFATYYCQQTKEVPWSFGQGTKVEVKRTVAAPSVFIFPPSDEQLKSGTASVVCLLNNFYPREAKVQWKVDNALQSGNSQESVTEQDSKDSTYSLSSTLTLSKADYEKHKVYACEVTHQGLSSPVTKSFNRGEC	12.9 fold	100%	539000 gMFI	99.9%	601000 gMFI	63600 gMFI	13.6 fold	58000 gMFI
CD3 × CD33-BspAb125 (bispecific antibody) chain 1: not shown chain 2: EVQLVQSGAEVKKPGSSVKVSCKASGYTITDSNIHWVRQAPGQSLEWIGYIYPYNGGTDYNQKFKNRATLTVDNPTNTAYMELSSLRSEDTAFYYCVNGNPWLAYWGQGTLVTVSSASTKGPSVFPLAPSSKSTSGGTAALGCLVKDYFPEPVTVSWNSGALTSGVHTFPAVLQSSGLYSLSSVVTVPSSSLGTQTYICNVNHKPSNTKVDKRVEPKSCDKTHTCPPCPAPEFEGGPSVFLFPPKPKDTLMISRTPEVTCVVVDVSHEDPEVKFNWYVDGVEVHNAKTKPREEQYNSTYRVVSVLTVLHQDWLNGKEYKCKVSNKALPASIEKTISKAKGQPREPQVCTLPPSREEMTKNQVSLSCAVKGFYPSDIAVEWESNGQPENNYKTTPPVLDSDGSFFLVSKLTVDKSRWQQGNVFSCSVMHEALHNRFTQKSLSLSPGK chain 3: DIQLTQSPSTLSASVGDRVTITCRASESLDNYGIRFLTWFQQKPGKAPKLLMYAASNQGSGVPSRFSGSGSGTEFTLTISSLQPDDFATYYCQQTKEVPWSFGQGTKVEVKRTVAAPSVFIFPPSDEQLKSGTASVVCLLNNFYPREAKVQWKVDNALQSGNSQESVTEQDSKDSTYSLSSTLTLSKADYEKHKVYACEVTHQGLSSPVTKSFNRGEC	1.5 fold	42.2%	6020 gMFI	95.4%	28700 gMFI	13700 gMFI	5.3 fold	3680 gMFI
